{"source": "paper PMC2275160", "binders": {"B1": {"name": "Glis-BS consensus (dsDNA)", "DNA 1": "CGTGGGGGGTC", "DNA 2": "GACCCCCCACG"}}, "test_in_all_cases": "EMSA", "key": {"His6-Glis3(ZFD)4m": {"target": "T1, His6-Glis3(ZFD)4m (mouse, UniProt Q6XP49 345-496, C444A)", "T1 sequence": "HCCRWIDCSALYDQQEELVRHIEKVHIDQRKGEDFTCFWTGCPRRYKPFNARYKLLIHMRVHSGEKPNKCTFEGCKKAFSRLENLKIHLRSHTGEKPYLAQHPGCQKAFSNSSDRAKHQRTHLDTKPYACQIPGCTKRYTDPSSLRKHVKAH"}, "His6-Glis3(ZFD)1m": {"target": "T2, His6-Glis3(ZFD)1m (mouse, UniProt Q6XP49 345-496, C347A)", "T2 sequence": "T1 sequence with C3A, A100C"}, "His6-Glis3(ZFD)2m": {"target": "T3, His6-Glis3(ZFD)2m (mouse, UniProt Q6XP49 345-496, C381A)", "T3 sequence": "T1 sequence with C37A, A100C"}, "His6-Glis3(ZFD)5m": {"target": "T4, His6-Glis3(ZFD)5m (mouse, UniProt Q6XP49 345-496, C474A)", "T4 sequence": "T1 sequence with A100C, C130A"}, "His6-Glis3(ZFD)3m": {"target": "T5, His6-Glis3(ZFD)3m (mouse, UniProt Q6XP49 345-496, C414A)", "T5 sequence": "T1 sequence with C70A, A100C"}, "His6-Glis3(ZFD)": {"target": "T6, His6-Glis3(ZFD) (mouse, UniProt Q6XP49 345-496)", "T6 sequence": "T1 sequence with A100C"}}, "note": "Substitutions are numbered along the chain they refer to."}
{"binder": "B1", "values": [{"measurement": "binding result", "setting": "His6-Glis3(ZFD)4m", "value": "no binding"}, {"measurement": "binding result", "setting": "His6-Glis3(ZFD)1m", "value": "no binding"}, {"measurement": "binding result", "setting": "His6-Glis3(ZFD)2m", "value": "no binding"}, {"measurement": "binding result", "setting": "His6-Glis3(ZFD)5m", "value": "no binding"}, {"measurement": "binding result", "setting": "His6-Glis3(ZFD)3m", "value": "no binding"}, {"measurement": "Kd", "setting": "His6-Glis3(ZFD)", "value": "3.69 ± 0.26", "unit": "nM"}]}
